First the molecules themselves.
B1: C-terminally HA-tagged WDR18 (full length) (natural protein, human, UniProt Q9BV38 1-432, looked up)
chain: MAAPMEVAVCTDSAAPMWSCIVWELHSGANLLTYRGGQAGPRGLALLNGEYLLAAQLGKNYISAWELQRKDQLQQKIMCPGPVTCLTASPNGLYVLAGVAESIHLWEVSTGNLLVILSRHYQDVSCLQFTGDSSHFISGGKDCLVLVWSLCSVLQADPSRIPAPRHVWSHHALPITDLHCGFGGPLARVATSSLDQTVKLWEVSSGELLLSVLFDVSIMAVTMDLAEHHMFCGGSEGSIFQVDLFTWPGQRERSFHPEQDAGKVFKGHRNQVTCLSVSTDGSVLLSGSHDETVRLWDVQSKQCIRTVALKGPVTNAAILLAPVSMLSSDFRPSLPLPHFNKHLLGAEHGDEPRHGGLTLRLGLHQQGSEPSYLDRTEQLQAVLCSTMEKSVLGGQDQLRVRVTELEDEVRNLRKINRDLFDFSTRFITRPAK
notes: WDR18, human, full length; The HA tag is stated for the cryo-EM sample; Two copies stand in the heterotetramer; source: HEK293FT, transiently transfected; in lysate (co-IP) and co-purified with FLAG-tagged PELP1 constructs on anti-FLAG gel (cryo-EM, cross-linking); not shown: HA, C-terminal, kept
B2: epitope-tagged SENP3 (enzyme)
chain: not shown
notes: SENP3, human; Blots used anti-HA, anti-GFP and anti-MYC antibodies; also called SUMO protease SENP3; source: HEK293FT, transiently transfected; in lysate (co-IP) and co-purified with C-terminal FLAG-tagged PELP1 (cross-linking)
B3: N-terminally FLAG-tagged PELP1 Rix1 domain (1-642aa) (domain or fragment)
chain: not shown
notes: PELP1, human, N-terminal Rix1 domain, residues 1-642; Two copies stand in the PELP1-WDR18 heterotetramer of the cryo-EM structure; also called Rix1 domain of PELP1; source: HEK293FT, transiently transfected; not shown: FLAG, N-terminal, kept

The target in data set [1] is B2. Nature of the data set: cross-linking; BS3 cross-linking with mass spectrometry of the Rix1 complex purified via the C-terminal FLAG tag on full-length PELP1; 2.0 uM complex, 50 mM Hepes pH 7.3, 600 mM NaCl, 5 mM MgCl2, 5% glycerol, room temperature 10 min; BS3 1.2 mM (methods) or 0.12 mM (results). The following applies: both partners purified.
The target in data set [2] is T1, C-terminal FLAG-tagged PELP1 (full length) (human, UniProt Q8IZL8 1-1130).
T1 construct: also called C-terminal PELP1 IP; source: HEK293FT, transiently transfected; in lysate (co-IP) and purified with the Rix1 complex via the C-terminal FLAG tag (cross-linking); not shown: FLAG, C-terminal, kept
T1 sequence (Q8IZL8 whole entry): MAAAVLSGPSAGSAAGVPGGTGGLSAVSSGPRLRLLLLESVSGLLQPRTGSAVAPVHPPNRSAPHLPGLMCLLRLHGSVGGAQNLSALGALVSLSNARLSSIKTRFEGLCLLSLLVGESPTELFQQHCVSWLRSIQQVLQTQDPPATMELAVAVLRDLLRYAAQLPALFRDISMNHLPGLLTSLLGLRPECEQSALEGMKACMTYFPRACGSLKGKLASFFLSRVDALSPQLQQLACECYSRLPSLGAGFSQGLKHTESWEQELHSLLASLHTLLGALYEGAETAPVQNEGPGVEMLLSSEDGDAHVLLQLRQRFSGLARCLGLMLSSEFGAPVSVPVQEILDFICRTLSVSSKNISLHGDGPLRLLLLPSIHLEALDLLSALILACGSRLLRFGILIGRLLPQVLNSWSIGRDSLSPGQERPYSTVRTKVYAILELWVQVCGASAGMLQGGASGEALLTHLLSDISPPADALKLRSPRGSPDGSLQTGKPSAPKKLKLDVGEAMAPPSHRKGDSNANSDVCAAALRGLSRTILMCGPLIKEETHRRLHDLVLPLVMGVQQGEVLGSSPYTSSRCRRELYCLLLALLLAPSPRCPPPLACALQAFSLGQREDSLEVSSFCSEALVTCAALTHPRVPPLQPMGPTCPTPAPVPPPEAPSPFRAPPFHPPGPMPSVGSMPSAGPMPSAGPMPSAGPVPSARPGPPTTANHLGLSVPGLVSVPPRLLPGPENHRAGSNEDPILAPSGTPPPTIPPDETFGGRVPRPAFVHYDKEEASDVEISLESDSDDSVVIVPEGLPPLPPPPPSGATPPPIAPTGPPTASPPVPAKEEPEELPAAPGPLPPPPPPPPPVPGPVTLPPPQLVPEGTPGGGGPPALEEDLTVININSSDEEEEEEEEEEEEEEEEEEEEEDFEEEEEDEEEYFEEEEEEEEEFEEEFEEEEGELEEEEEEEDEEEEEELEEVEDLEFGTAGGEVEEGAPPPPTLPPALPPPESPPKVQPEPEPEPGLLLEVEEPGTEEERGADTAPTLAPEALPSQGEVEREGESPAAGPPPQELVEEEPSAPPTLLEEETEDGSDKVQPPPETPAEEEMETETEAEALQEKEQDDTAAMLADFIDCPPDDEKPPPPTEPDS
Described as above. As to conditions: both partners purified.

Data set [3] addresses B3. Nature of the data set: cross-linking; BS3 cross-linking with mass spectrometry of the PELP1 Rix1 domain-WDR18 sub-complex purified via the N-terminal FLAG tag; 6.0 uM complex, 1.0 mM BS3, 50 mM Hepes pH 7.3, 600 mM NaCl, 5 mM MgCl2, 5% glycerol, room temperature 10 min. The following applies: both partners purified.
Data set [4] concerns the molecule itself. Nature of the data set: cryo-EM structure; PELP1 Rix1 domain and WDR18 co-expressed in HEK293FT and co-purified on anti-FLAG gel; 150 mM NaCl, 50 mM Hepes pH 7.7, 5 mM MgCl2; 0.24 mg/ml; C2 symmetry, 2.7 Å.

For B1, the binding result in data set [1], in data set [2] and in data set [3] was “binds” each time.
B2: the binding result in data set [2] was “binds”.
By stoichiometry N is commonly meant a count of units in the complex or per binding partner. Regarding B3, in data set [4], the “stoichiometry N” value was 2.

These data come from article PMC9646879, “Cryo-EM reveals the architecture of the PELP1-WDR18 molecular scaffold” (Nature Communications, 2022).
